Measurements published in patent US12459997B2, “Compounds and methods targeting interleukin-19” (Eli Lilly and Company, priority 2018, dated 2025).

Legend:
[1] = biological target: T1, recombinant human IL-19 (Homo sapiens, UniProt Q9UHD0); assay: Bio-layer interferometry (BLI) binding kinetics and affinity (Octet Red96); settings: 25° C.; 1:1 binding model
T1 sequence (Q9UHD0 25-177): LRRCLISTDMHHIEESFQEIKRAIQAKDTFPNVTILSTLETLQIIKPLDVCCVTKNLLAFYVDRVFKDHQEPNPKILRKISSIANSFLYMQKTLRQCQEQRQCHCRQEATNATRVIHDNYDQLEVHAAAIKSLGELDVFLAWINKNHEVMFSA
Experimental: Bio-layer interferometry (BLI) assay, measured with a Octet Red96® instrument available from ForteBio (using HBS-EP+ running buffer (GE Healthcare, 10 mM Hepes pH7.4+150 mM NaCl+3 mM EDTA+0.05% surfactant P20) at 25° C.), is used to measure binding of the exemplified IL-19 antibodies of the present invention to recombinant human IL-19 (having the amino acid sequence set for in SEQ ID NO: 1).
Except as noted, all reagents and materials are from ForteBio (Freemont, Calif.). An AMQ biosensor is used to immobilize antibody of interest for analysis. […] Recombinant human IL-19 is prepared to concentrations of 270, 90, 30, 10, 3.33, 1.11, 0.370, and 0 (blank) nM by dilution into running buffer. Each analysis consists of: (1) capturing antibody samples on biosensors for 300 secs; (2) establishing a baseline by incubating antibody loaded biosensors with running buffer for 60 secs; (3) incubating antibody loaded biosensors with serially diluted recombinant human IL-19 for 300 secs to monitor association phase; (4) return of biosensor to running buffer to monitor dissociation phase.
Binding data is processed using standard double-referencing and fit to a 1:1 binding model using Data Analysis v9.0 evaluation software, to determine the association rate (kon, M^−1 s^−1 units), dissociation rate (koff, s^−1 units), and Rmax (nm units). The equilibrium dissociation constant (KD) was calculated from the relationship KD=koff/kon, and is in molar units.

[2] = biological target: T1, recombinant human IL-19; assay: HDX-MS epitope mapping; format: binding; settings: IL-19:antibody molar ratio 1:1.2
Experimental: Briefly, HDX-MS is performed on a Waters nanoACQUITY system with HDX technology, including a LEAP HDX robotic liquid handling system and mass analysis is performed on a Waters Xevo G2-Tof mass spectrometer. […] The deuterium exchange experiment is initiated adding 55 uL of D2O buffer containing 0.1×PBS to 5 ul of human IL-19 or the human IL-19/antibody complex at 15° C. for various amounts of time (0 s, 10 s, 1 min, 10 min, 60 min, 120/240 min). The reaction is quenched using equal volume of was 0.32M TCEP, 0.1M phosphate pH 2.5 for two minutes at 1° C. 50 μL of the quenched reaction is injected on to an on-line pepsin column (Waters BEH Enzymate) at 14° C., using 0.2% formic acid in water as the mobile phase at a flow rate of 100 μL/min for 4 min. The resulting peptic peptides are then separated on a C18 column (Waters, Acquity UPLC BEH C18, 1.7 m, 1.0 mm×50 mm) fit with a Vanguard trap column using a 3 to 85% acetonitrile (containing 0.2% formic acid) gradient over 10 min at a flow rate of 50 L/min. The separated peptides are directed into a Waters Xevo G2 time-of-flight (qTOF) mass spectrometer. […] The relative deuterium incorporation for each peptide is determined by processing the MS data for deuterated samples along with the non-deuterated control in DynamX.

[3] = biological target: T2, human IL-19 / human IL-20R beta Fc-fusion protein (Homo sapiens, UniProt Q9UHD0); assay: BLI in vitro neutralization: IL-19 captured by antibody, then incubated with IL-20R beta Fc; settings: block of IL-19 binding to soluble receptor
T2 sequence (Q9UHD0 25-177): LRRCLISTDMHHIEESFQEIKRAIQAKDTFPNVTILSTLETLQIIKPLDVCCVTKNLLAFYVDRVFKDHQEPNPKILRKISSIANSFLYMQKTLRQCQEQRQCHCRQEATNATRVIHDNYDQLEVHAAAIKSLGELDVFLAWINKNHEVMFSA
From the text: Alternatively, a biophysical assay such as bio-layer interferometry (BLI) may be used for assessing neutralization of IL-19 by antibodies of the present invention. Binding between a ligand immobilized on the biosensor tip surface and an analyte in solution produces an increase in optical thickness at the biosensor tip, which results in a wavelength shift (expressed in nm). According to such assay, the IL-19 receptor (i.e., […]) is expressed in a membrane-free manner (such as with an Fc-fusion e.g. IL20Rbeta Fc chimera protein from R&D Systems catalog 1788-IR-050). […] The immobilized antibodies are then incubated with recombinant human IL-19 protein diluted to 100 nM using HBS-EP+ running buffer (GE Healthcare, 10 mM Hepes pH7.4+150 mM NaCl+3 mM EDTA+0.05% surfactant P20) for 240-300 secs. The human IL-19, after binding to the anti-IL-19 antibody, is assessed by incubation with human IL-20R beta Fc-fusion protein for 240-300 secs. The ability of the antibody to block or neutralize binding of the IL-19 ligand to the soluble receptor is observed as a minimal (<0.025 nm) increase in the wavelength during this step of the assay.

B1: R_39: rabbit-derived IL-19 antibody; LC SEQ ID NO: 310, HC SEQ ID NO: 311 (antibody)
heavy: QEQLKESGGGLVQPGGSLKLSCKASGFDLSSYGVSWVRQAPGKGLEWIGYIDPVFGSTYYANWVNGRFTISSDNAQNTLYLQLNSLTAADTATYFCARGSGYVYYGYTYDLWGPGTLVTVSSGQPKAPSVFPLAPCCGDTPSSTVTLGCLVKGYLPEPVTVTWNSGTLTNGVRTFPSVRQSSGLYSLSSVVSVTSSSQPVTCNVAHPATNTKVDKTVAPSTCSKPTCPPPELLGGPSVFIFPPKPKDTLMISRTPEVTCVVVDVSQDDPEVQFTWYINNEQVRTARPPLREQQFNSTIRVVSTLPIAHQDWLRGKEFKCKVHNKALPAPIEKTISKARGQPLEPKVYTMGPPREELSSRSVSLTCMINGFYPSDISVEWEKNGKAEDNYKTTPAVLDSDGSYFLYSKLSVPTSEWQRGDVFTCSVMHEALHNHYTQKSISRSPGK
light: DIVMTQTPASVEAAVGGTVTIKCQASQSIYRYLSWYQQKPGQRPKLLIYGASNLASGVSSRFKGSGSGTEFTLTISDLECADAATYYCQSYYYSSSSGYGNVFGGGTEVVVKGDPVAPTVLIFPPAADQVATGTVTIVCVANKYFPDVTVTWEVDGTTQTTGIENSKTPQNSADCTYNLSSTLTLTSTQYNSHKEYTCKVTQGTTSVVQSFNRGDC
B1 was tested, and the kon [1] was 206000 M⁻¹ s⁻¹, the “residues of SEQ ID NO. 1 with decreased deuterium uptake in complex with antibody (epitope region)” value [2] was “residues 42-60 ([…]), 90-107 ([…]), and 149-160 ([…])” and the Neutralization [3] was “Yes (minimal (<0.025 nm) increase in the wavelength)”.
